{
  "source": "paper PMC12052392",
  "about": "(PLOS Pathogens, 2025)",
  "binders": {"B1": {"name": "anti-SH neutralizing antibody CV3-25 (antibody, V domains shown)", "VH": "EVQLVESGAEVKKPGESLKISCKGSGYTFTRYWIGWVRQMPGKGLEWMGIIYPGDSDTRYSPSFQGHVTISADKSISTAYLQWNSLKASDTAMYYCARLPQYCSNGVCQRWFDPWGQGTLVTVSS", "VL": "EIVLTQSPSSVSASVGDRVTITCRASQGISSWLAWYQQKPGKAPKLLIYAASSLQSGVPSRFSGSGSGTDFTLTISSLQPEDFATYYCQQGNSFPYTFGQGTNLEIK"}},
  "molecular_target": "SARS-CoV-2 S2 (T1076-Q1208) antigen, trimeric S2 fusion-core-based antigen (SARS-CoV-2 prototype (MN908947.3), UniProt P0DTC2, biotin (Biotinylation Kit))",
  "assay": "BLI",
  "settings": "both partners purified",
  "data": [
    {"binder": "B1", "values": [
      {"measurement": "binding result", "value": "binds"}
    ]}
  ]
}
